Data on ten molecules can be found in patent US11278600B2, “Human alpha-galactosidase variants” (Codexis, Inc., priority 2014, dated 2022).

What all share (assay type): biochemical
Data set [1] is described as follows: HTP-analysis of supernatants pretreated with base (MUGal hydrolysis). The settings on record: activity of the variant/activity of Rd7BB (SEQ ID NO: 44); challenge at pH 7.5. In a few lines: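 Supernatants from INVSc1 yeast expressing GLA variants (SD-Ura, 66-84 h, 30° C) were mixed with McIlvaine buffer pH 7.0-8.2 or 200 mM sodium bicarbonate pH 9.1-9.7 and held 1-18 h at 37° C. Residual activity was then measured on MUGal at pH 4.8/4.3, 37° C, 30-180 min, by fluorescence (Ex 355/Em 448 nm).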

A short description of data set [2]: HTP-analysis of yeast culture supernatants, no challenge (MUGal hydrolysis). The settings on record: activity of the variant/activity of Rd7BB (SEQ ID NO: 44). The procedure, abridged: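 GLA variants expressed in yeast INVSc1, secreted into SD-Ura broth over 66-84 h at 30° C; clarified supernatants tested without challenge. Supernatant mixed with McIlvaine buffer pH 4.8 and 2 mM MUGal (citrate/KCl, pH 4.6), 37° C for 30-180 min, carbonate-quenched, fluorescence Ex 355/Em 448 nm.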

The nature of data set [3]: HTP-analysis of supernatants pretreated with acid (MUGal hydrolysis). The settings on record: activity of the variant/activity of Rd7BB (SEQ ID NO: 44); challenge at pH 3.5. In a few lines: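 Fluorescence of MUGal hydrolysis (Ex. 355 nm, Em. 448 nm) is read after sodium carbonate quench. The enzyme source is INVSc1 yeast culture supernatant, first exposed to pH 3.3-4.3 McIlvaine buffer at 37° C. for 1-3 h, then reacted at pH 4.8 for 30-180 minutes.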

Residue numbers refer to the chain shown, from its start.

B1: 647 (protein)
chain: LDNGLARTPTMGWLHWERFMCNLDCQEEPDSCISEKLFMEMAERMVSEGWKDAGYEYLCIDDCWMAPQRDSEGRLQADPQRFPHGIRQLANYVHSIGLKLGIYADVGNKTCAGFPGSFGYYDIDAQTFADWGVDLLKFDGCYCDSLENLADGYKHMSLALNRTGRSIVYSCEWPLYMWPFQKPNYTEIRQYCNHWRNFADIDDSWASIKSILDWTSRNQERIVDVAGPGGWNDPDMLVIGNFGLSWNQQVTQMALWAIMAAPLFMSNDLRHISPQAKALLQDKDVIAINQDPLGKQGYQLRKGDNFEVWERPLSGLAWAVAIINRQEIGGPRSYTIAVASLGKGVACNPGCFITQLLPVKRQLGFYNWSSRLKSHINPTGTVLLQLENTMQMSLKDLL
modifications: Synthetic Polypeptide sequence of Variant No. 346 of mature Human GLA
For the molecule B1, the “Relative Activity of GLA Variants After Challenge at pH 7.5” value (“Relative Activity … at pH 7.5” for short) in data set [1] is listed as “− (<0.5 relative activity to Rd7BB (SEQ ID NO: 44))”. Also, in data set [2], the “Relative Activity of GLA Variants After No Challenge (NC)” value is “− (<0.5 relative activity to Rd7BB (SEQ ID NO: 44))”. In addition, in data set [3], the “Relative Activity of GLA Variants After Challenge at pH 3.5” value (“Relative Activity … at pH 3.5” for short) was “− (<0.5 relative activity to Rd7BB (SEQ ID NO: 44))”.

B2: 643 (protein)
chain: LDNGLARTPPMGWLHWERFMCNLDCQEEPDSCISEKLFMEMAERMVTEGWKDAGYEYLCIDDCWMAPQRDSEGRLQADPQRFPHGIRQLANHVHSKGLKLGIYADVGNKTCAGFPGSFGYYDIDAQTFADWGVDLLKFDGCYCDSLENLADGYKHMSLALNRTGRPIVYSCEWPLYMWPFQKPNYTEIRQYCNHWRNFADIDDSWASIKSILDWTSRNQERIVDVAGPGGWNDPDMLVIGNFGLSWDQQVTQMALWAIMAAPLFMSNDLRAISPQAKALLQDKDVIAINQDPLGKQGYQLRKGDNFEVWERPLSGDAWAVAIINSQEIGGPRSYTIPVASLGKGVACNPACFITQLLPVKRQLGFYNWTSRLKSHINPTGTVLLQLENTMQTSLKDLL
modifications: Synthetic Polypeptide sequence of Variant No. 643 of mature Human GLA
With B2, in data set [1], the “Relative Activity … at pH 7.5” value is “+ (>0.5 to 1.5 relative activity over Rd7BB (SEQ ID NO: 44))”. Moreover, in data set [2], the “Relative Activity of GLA Variants After No Challenge (NC)” value is “+ (>0.5 to 1.5 relative activity over Rd7BB (SEQ ID NO: 44))”. In addition, the “Relative Activity … at pH 3.5” value in data set [3] is recorded as “− (<0.5 relative activity to Rd7BB (SEQ ID NO: 44))”.

B3: 651 (protein)
chain: B2 chain with S325R
modifications: Synthetic Polypeptide sequence of Variant No. 651 of mature Human GLA
With B3, in data set [1], the “Relative Activity … at pH 7.5” value is recorded as “+ (>0.5 to 1.5 relative activity over Rd7BB (SEQ ID NO: 44))”. The “Relative Activity of GLA Variants After No Challenge (NC)” value in data set [2] is given as “+ (>0.5 to 1.5 relative activity over Rd7BB (SEQ ID NO: 44))”. In addition, the “Relative Activity … at pH 3.5” value in data set [3] is given as “+ (>0.5 to 1.5 relative activity over Rd7BB (SEQ ID NO: 44))”.

B4: 650 (protein)
chain: B2 chain with R7H, S325R
modifications: Synthetic Polypeptide sequence of Variant No. 650 of mature Human GLA
As to B4, the “Relative Activity … at pH 7.5” value in data set [1] is recorded as “+ (>0.5 to 1.5 relative activity over Rd7BB (SEQ ID NO: 44))”. Moreover, the “Relative Activity of GLA Variants After No Challenge (NC)” value in data set [2] is “+ (>0.5 to 1.5 relative activity over Rd7BB (SEQ ID NO: 44))”. The “Relative Activity … at pH 3.5” value in data set [3] is listed as “+ (>0.5 to 1.5 relative activity over Rd7BB (SEQ ID NO: 44))”.

B5: 648 (protein)
chain: B2 chain with M39E, A261G, S325R, W368A
modifications: Synthetic Polypeptide sequence of Variant No. 648
Take B5: in data set [1], the “Relative Activity … at pH 7.5” value is listed as “+ (>0.5 to 1.5 relative activity over Rd7BB (SEQ ID NO: 44))”. Further, the “Relative Activity of GLA Variants After No Challenge (NC)” value in data set [2] was “+ (>0.5 to 1.5 relative activity over Rd7BB (SEQ ID NO: 44))”. In addition, the “Relative Activity … at pH 3.5” value in data set [3] was “+ (>0.5 to 1.5 relative activity over Rd7BB (SEQ ID NO: 44))”.

B6: 646 (protein)
chain: B2 chain with P10T, G113C, S325R
modifications: Synthetic Polypeptide sequence of Variant No. 646 of mature Human GLA
For B6, the “Relative Activity … at pH 7.5” value in data set [1] is on record as “− (<0.5 relative activity to Rd7BB (SEQ ID NO: 44))”. For the same molecule, the “Relative Activity of GLA Variants After No Challenge (NC)” value in data set [2] was “− (<0.5 relative activity to Rd7BB (SEQ ID NO: 44))”. For the same molecule, the “Relative Activity … at pH 3.5” value in data set [3] was “− (<0.5 relative activity to Rd7BB (SEQ ID NO: 44))”.

B7: 645 (protein)
chain: B2 chain with P10T, P174S, S325R
modifications: Synthetic Polypeptide sequence of Variant No. 645 of mature Human GLA
Consider B7, for which the “Relative Activity … at pH 7.5” value in data set [1] is “− (<0.5 relative activity to Rd7BB (SEQ ID NO: 44))”. Besides, the “Relative Activity of GLA Variants After No Challenge (NC)” value in data set [2] is listed as “+ (>0.5 to 1.5 relative activity over Rd7BB (SEQ ID NO: 44))”. Besides, in data set [3], the “Relative Activity … at pH 3.5” value is “+ (>0.5 to 1.5 relative activity over Rd7BB (SEQ ID NO: 44))”.

B8: 649 (protein)
chain: B2 chain with M39E, W246P, S325R
modifications: Synthetic Polypeptide sequence of Variant No. 649 of mature Human GLA
In the case of B8, the “Relative Activity … at pH 7.5” value in data set [1] was “+ (>0.5 to 1.5 relative activity over Rd7BB (SEQ ID NO: 44))”. In data set [2], the “Relative Activity of GLA Variants After No Challenge (NC)” value is reported as “+ (>0.5 to 1.5 relative activity over Rd7BB (SEQ ID NO: 44))”. The “Relative Activity … at pH 3.5” value in data set [3] is given as “+ (>0.5 to 1.5 relative activity over Rd7BB (SEQ ID NO: 44))”.

B9: 644 (protein)
chain: B2 chain with P10T, L237P, S325R
modifications: Synthetic Polypeptide sequence of Variant No. 644 of mature Human GLA
As for B9, the “Relative Activity … at pH 7.5” value in data set [1] is listed as “− (<0.5 relative activity to Rd7BB (SEQ ID NO: 44))”. In addition, in data set [2], the “Relative Activity of GLA Variants After No Challenge (NC)” value was “− (<0.5 relative activity to Rd7BB (SEQ ID NO: 44))”. Besides, the “Relative Activity … at pH 3.5” value in data set [3] is recorded as “− (<0.5 relative activity to Rd7BB (SEQ ID NO: 44))”.

B10: 652 (protein)
chain: B2 chain with P10T, W246P, A261G, N305L, S325R
modifications: Synthetic Polypeptide sequence of Variant No. 652 of mature Human GLA
With B10, the “Relative Activity … at pH 7.5” value in data set [1] was “− (<0.5 relative activity to Rd7BB (SEQ ID NO: 44))”. Also, the “Relative Activity of GLA Variants After No Challenge (NC)” value in data set [2] is reported as “+ (>0.5 to 1.5 relative activity over Rd7BB (SEQ ID NO: 44))”. In addition, the “Relative Activity … at pH 3.5” value in data set [3] was “+ (>0.5 to 1.5 relative activity over Rd7BB (SEQ ID NO: 44))”.
